The term Km denotes the substrate concentration at which the rate is half of its maximum.

Results on one substance are retold here after PMC6509496, “Crystal structure of the TreS:Pep2 complex, initiating α-glucan synthesis in the GlgE pathway of mycobacteria” (The Journal of Biological Chemistry, 2019).

The series has as its system T1, Nc1ncnc2c1ncn2[C@@H]1O[C@H](COP(=O)(O)OP(=O)(O)OP(=O)(O)O)[C@@H](O)[C@H]1O.
T1 construct: full length (441 residues), N-terminal His6 tag (pET28a), E. coli BL21(DE3); monomer
Kind of series: coupled pyruvate kinase / lactate dehydrogenase assay, NADH depletion. It counts as biochemical, Mycolicibacterium smegmatis. The settings on record: 20 mM maltose, 10 mM MgCl2, 50 mM sodium phosphate pH 7.5, 300 mM NaCl, 10% glycerol, no TreS.

From the text: coupled pyruvate kinase / lactate dehydrogenase assay, NADH depletion on Msm Pep2 (M. smegmatis maltokinase, MsPep2)

For the substance “Msm Pep2 (M. smegmatis maltokinase, MsPep2) (Mycolicibacterium smegmatis MC2 155)”, the Km was 76 ± 7 µM.
